From patent publication US20150105322

Tests used:
[1] = target: non-N-glycosylated human annexin A2-6×His (N62A) group #1 expressed in Pichia pastoris
[2] = target: glycosylated human annexin A2-6×His expressed in Pichia pastoris
[3] = target: non-N-glycosylated human annexin A2-6×His (N62A) group #2 expressed in Pichia pastoris
[4] = target: E. coli expressed human annexin A2, P07355
Sequence of E. coli expressed human annexin A2, P07355 (P07355 whole entry): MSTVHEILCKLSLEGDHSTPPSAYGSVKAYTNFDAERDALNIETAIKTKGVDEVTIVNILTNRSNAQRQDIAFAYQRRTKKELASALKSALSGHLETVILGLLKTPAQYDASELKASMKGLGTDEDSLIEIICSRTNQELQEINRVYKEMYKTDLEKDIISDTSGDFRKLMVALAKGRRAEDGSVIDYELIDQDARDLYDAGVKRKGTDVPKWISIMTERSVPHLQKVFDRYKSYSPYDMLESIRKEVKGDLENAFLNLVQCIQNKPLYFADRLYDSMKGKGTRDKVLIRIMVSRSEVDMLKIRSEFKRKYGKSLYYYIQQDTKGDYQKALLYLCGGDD

Sequence of non-N-glycosylated human annexin A2-6×His (N62A) group #2 expressed in Pichia pastoris (chain, as listed by the source N62A): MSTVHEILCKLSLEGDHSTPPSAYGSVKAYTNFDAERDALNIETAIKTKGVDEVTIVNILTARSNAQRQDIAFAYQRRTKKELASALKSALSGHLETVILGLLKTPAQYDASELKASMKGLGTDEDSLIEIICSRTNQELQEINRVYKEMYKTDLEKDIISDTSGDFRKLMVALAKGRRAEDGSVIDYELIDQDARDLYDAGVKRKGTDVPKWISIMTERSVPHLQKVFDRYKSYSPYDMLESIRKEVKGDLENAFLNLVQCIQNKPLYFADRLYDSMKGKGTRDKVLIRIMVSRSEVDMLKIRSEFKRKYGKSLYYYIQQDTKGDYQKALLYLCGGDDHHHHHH
Sequence of non-N-glycosylated human annexin A2-6×His (N62A) group #1 expressed in Pichia pastoris (chain, as listed by the source N62A): as above
Sequence of glycosylated human annexin A2-6×His expressed in Pichia pastoris (chain, as listed by the source): as the sequence (chain, as listed by the source N62A) above, with A62N counted along it

B1: tissue plasminogen activator (protein)
chain: SYQVICRDEKTQMIYQQHQSWLRPVLRSNRVEYCWCNSGRAQCHSVPVKSCSEPRCFNGGTCQQALYFSDFVCQCPEGFAGKCCEIDTRATCYEDQGISYRGTWSTAESGAECTNWNSSALAQKPYSGRRPDAIRLGLGNHNYCRNPDRDSKPWCYVFKAGKYSSEFCSTPACSEGNSDCYFGNGSAYRGTHSLTESGASCLPWNSMILIGKVYTAQNPSAQALGLGKHNYCRNPDGDAKPWCHVLKNRRLTWEYCDVPSCSTCGLRQYSQPQFRIKGGLFADIASHPWQAAIFAKHRRSPGERFLCGGILISSCWILSAAHCFQERFPPHHLTVILGRTYRVVPGEEEQKFEVEKYIVHKEFDDDTYDNDIALLQLKSDSSRCAQESSVVRTVCLPPADLQLPDWTECELSGYGKHEALSPFYSERLKEAHVRLYPSSRCTSQHLLNRTVTDNMLCAGDTRSGGPQANLHDACQGDSGGPLVCLNDGRMTLVGIISWGLGCGQKDVPGVYTKVTNYLDWIRDNMRP
[1]
  tPA-mediated plasmin-generation (fluorogenic plasmin substrate D-Val-Leu-Lys-AMC, with N-terminal lysine plasminogen): restored the enhancer function completely
[2]
  tPA-mediated plasmin-generation (fluorogenic plasmin substrate D-Val-Leu-Lys-AMC, with N-terminal lysine plasminogen): did not significantly enhance tPA-mediated plasmin-generation
[3]
  tPA-mediated plasmin-generation (fluorogenic plasmin substrate D-Val-Leu-Lys-AMC, with N-terminal lysine plasminogen): The enhancer function was partially (about 50%) restored in group #2
[4]
  tPA-mediated plasmin-generation (fluorogenic plasmin substrate D-Val-Leu-Lys-AMC, with N-terminal lysine plasminogen): comparable to the E. coli expressed human annexin A2 (positive control, labeled as t1+bac-rA2)
